Results on 58 molecules are retold here after patent US20040018971A1.

Where only a bound is given, the exact number is not on record here.

The first experiment addresses HLA-A*0201 (human). Kind of experiment: competitive inhibition of 125I-labeled probe peptide binding to purified HLA-A*0201. The following applies: remark: other sources report otherwise.
ALCRWGLLL [Her2/neu.5]: the half-maximal inhibitory concentration (IC50) is less than 500 nM. On the same count and under the same terms, with ILDEAYVMA [Her2/neu.767] the figure was less than 500 nM; with HLYQGCQVV [Her2/neu.48], less than 500 nM. Regarding ILHNGAYSL [Her2/neu.435], the IC50 was less than 500 nM.

For another experiment, the target named is HLA-A*2401 (human). Nature of the experiment: competition with 125I-labelled standard peptide for purified HLA, gel filtration.
Conditions: not given
Consider LFEDNYALAVL [HER2/neu peptide, position 107, 11 amino acids], for which the relative binding ratio (IC50 of standard peptide / IC50 of test peptide) (ratio to standard peptide) was determined as 0.0006. Turning to LYISAWPDSL [HER2/neu peptide, position 410, 10 amino acids], the relative binding ratio (IC50 of standard peptide / IC50 of test peptide) (ratio to standard peptide) was 0.084.

As to LMPYGCLL [HER2/neu peptide, position 800, 8 amino acids], the relative binding ratio (IC50 of standard peptide / IC50 of test peptide) (ratio to standard peptide) came to 0.0076. Still for that read-out and setting: to PYVSRLLGI [HER2/neu peptide, position 780, 9 amino acids] belongs 0.17; to LFEDNYAL [HER2/neu peptide, position 107, 8 amino acids], 0.0006; to LFRNPHQAL [HER2/neu peptide, position 485, 9 amino acids], 0.0002.

Regarding PMCKGSRCW [HER2/neu peptide, position 197, 9 amino acids], the relative binding ratio (IC50 of standard peptide / IC50 of test peptide) (ratio to standard peptide) was 0.0011. As to LMTFGAKPY [HER2/neu peptide, position 915, 9 amino acids], the relative binding ratio (IC50 of standard peptide / IC50 of test peptide) (ratio to standard peptide) stood at 0.0001. Same read-out and setting: to LFRNPHQALL [HER2/neu peptide, position 485, 10 amino acids] belongs 0.0014.

In the case of KWMALESI [HER2/neu peptide, position 887, 8 amino acids], the relative binding ratio (IC50 of standard peptide / IC50 of test peptide) (ratio to standard peptide) amounted to 0.008. For KWMALESIL [HER2/neu peptide, position 887, 9 amino acids], the relative binding ratio (IC50 of standard peptide / IC50 of test peptide) (ratio to standard peptide) worked out at 0.015. As to NWCMQIAKGM [HER2/neu peptide, position 824, 10 amino acids], the relative binding ratio (IC50 of standard peptide / IC50 of test peptide) (ratio to standard peptide) stood at 0.0002.

On to KYTMRRLL [HER2/neu peptide, position 684, 8 amino acids], for which the relative binding ratio (IC50 of standard peptide / IC50 of test peptide) (ratio to standard peptide) was 0.0024. On the same count and under the same terms, to PYDGIPAREI [HER2/neu peptide, position 922, 10 amino acids] belongs 0.0005.

For a further experiment, the target named is HLA-A*2401 (purified HLA class I molecule) (human). Described as above. The conditions noted are these: scale: ratio.
IWIPDGENVKI [HER2/neu peptide, position 738, 11 amino acids]: the relative binding ratio turned out to be 0.0027. The same measure, in the same setting: with EYVNARHCL [HER2/neu peptide, position 553, 9 amino acids] the figure was 0.0061. The same measure, in the same setting: to IFGSLAFL [HER2/neu peptide, position 370, 8 amino acids] belongs 0.012. Same read-out and setting: with IMVKCWMI [HER2/neu peptide, position 954, 8 amino acids] the figure was 0.021; with IFHKNNQL [HER2/neu peptide, position 172, 8 amino acids], -0.0003; with GMGAAKGLQSL [HER2/neu peptide, position 1091, 11 amino acids], -0.0003. On to EYLVPQQGFF [HER2/neu peptide, position 1022, 10 amino acids], for which the relative binding ratio worked out at 0.012. In the case of EYLVPQQGF [HER2/neu peptide, position 1022, 9 amino acids], the relative binding ratio came to 0.0014.

For the molecule EYHADGGKVPI [HER2/neu peptide, position 876, 11 amino acids], the relative binding ratio was -0.0003. On the same count and under the same terms, with GMGAAKGL [HER2/neu peptide, position 1091, 8 amino acids] the figure was -0.0003; with HFNHSGICEL [HER2/neu peptide, position 257, 10 amino acids], 0.0002.

Regarding GYLYISAW [HER2/neu peptide, position 408, 8 amino acids], the relative binding ratio amounted to 0.0044.

For the next experiment the target is unchanged. Nature of the experiment: competition with 125I-labelled probe peptide for purified HLA, gel filtration.
Conditions: not given
On the technique in general: In gel filtration, larger molecules generally elute earlier.
With TYLPTNASLSF [HER2/neu peptide, position 63, 11 amino acids], the relative binding ratio (IC50 of standard peptide / IC50 of test peptide) turned out to be 8.9. With VFETLEEI [HER2/neu peptide, position 399, 8 amino acids], the relative binding ratio (IC50 of standard peptide / IC50 of test peptide) is -0.0003.

Turning to VFQNLQVI [HER2/neu peptide, position 424, 8 amino acids], the relative binding ratio (IC50 of standard peptide / IC50 of test peptide) is -0.0003. As to YMIMVKCW [HER2/neu peptide, position 952, 8 amino acids], the relative binding ratio (IC50 of standard peptide / IC50 of test peptide) stood at 0.0009.

Consider TYNTDTFESM [HER2/neu peptide, position 273, 10 amino acids], for which the relative binding ratio (IC50 of standard peptide / IC50 of test peptide) was found to be 0.0074. On to WMIDSECRPRF [HER2/neu peptide, position 959, 11 amino acids], for which the relative binding ratio (IC50 of standard peptide / IC50 of test peptide) stood at 0.0011. On the same count and under the same terms, with VWSYGVTVWEL [HER2/neu peptide, position 905, 11 amino acids] the figure was 0.092; with VYMIMVKCWM [HER2/neu peptide, position 951, 10 amino acids], 0.022; with VWSYGVTVW [HER2/neu peptide, position 905, 9 amino acids], 0.08. On the same count and under the same terms, with YVMAGVGSPY [HER2/neu peptide, position 772, 10 amino acids] the figure was 0.0001.

Staying with this experiment, now noted: scale: ratio.
Turning to YMIMVKCW [HER2/neu peptide, position 952, 8 amino acids], the relative binding ratio stood at 0.0009. On to WMIDSECRPRF [HER2/neu peptide, position 959, 11 amino acids], for which the relative binding ratio was 0.0011.

The target in another experiment is HLA-A*2401 (human). Kind of experiment: inhibition of 125I-labelled standard peptide binding to purified HLA, gel filtration.
Conditions: not given
As for SWLGLRSL [HER2/neu peptide, position 451, 8 amino acids], the relative binding ratio (IC50 of standard peptide / IC50 of test peptide) was -0.0003. On the same count and under the same terms, to SMPNPEGRYTF [HER2/neu peptide, position 281, 11 amino acids] belongs 0.018; to SYMPIWKF [HER2/neu peptide, position 609, 8 amino acids], 0.32.

On to RWGLLLALL [HER2/neu peptide, position 8, 9 amino acids], for which the relative binding ratio (IC50 of standard peptide / IC50 of test peptide) was found to be 1.3. The same measure, in the same setting: to SYGVTVWELM [HER2/neu peptide, position 907, 10 amino acids] belongs 0.063; to SWLGLRSLREL [HER2/neu peptide, position 451, 11 amino acids], 0.0036.

RFRELVSEF [HER2/neu peptide, position 968, 9 amino acids]: the relative binding ratio (IC50 of standard peptide / IC50 of test peptide) came out at 0.018. Same read-out and setting: to TMRRLLQETEL [HER2/neu peptide, position 686, 11 amino acids] belongs -0.0003; to SYGVTVWEL [HER2/neu peptide, position 907, 9 amino acids], 0.12; to RFVVIQNEDL [HER2/neu peptide, position 985, 10 amino acids], 0.0002. Still for that read-out and setting: with SYLEDVRL [HER2/neu peptide, position 834, 8 amino acids] the figure was 0.0059; with RYSEDPTVPL [HER2/neu peptide, position 1111, 10 amino acids], 0.012; with TFGAKPYDGI [HER2/neu peptide, position 917, 10 amino acids], 0.0002. As for RMARDPQRF [HER2/neu peptide, position 978, 9 amino acids], the relative binding ratio (IC50 of standard peptide / IC50 of test peptide) was 0.0032. On the same count and under the same terms, with TYLPTNASL [HER2/neu peptide, position 63, 9 amino acids] the figure was 0.038; with RWGLLLAL [HER2/neu peptide, position 8, 8 amino acids], 0.025; with RFTHQSDVW [HER2/neu peptide, position 898, 9 amino acids], 0.011. Same read-out and setting: with SMPNPEGRY [HER2/neu peptide, position 281, 9 amino acids] the figure was 0.0001.

What is called IC50 is the concentration needed to halve the response being measured.
